The text below walks through data of FireProtDB (doi:10.1021/bi00174a031).

B1: Phosphoglycerate kinase, P00560 (parent)
chain: MSLSSKLSVQDLDLKDKRVFIRVDFNVPLDGKKITSNQRIVAALPTIKYVLEHHPRYVVLASHLGRPNGERNEKYSLAPVAKELQSLLGKDVTFLNDCVGPEVEAAVKASAPGSVILLENLRYHIEEEGSRKVDGQKVKASKEDVQKFRHELSSLADVYINDAFGTAHRAHSSMVGFDLPQRAAGFLLEKELKYFGKALENPTRPFLAILGGAKVADKIQLIDNLLDKVDSIIIGGGMAFTFKKVLENTEIGDSIFDKAGAEIVPKLMEKAKAKGVEVVLPVDFIIADAFSADANTKTVTDKEGIPAGWQGLDNGPESRKLFAATVAKAKTIVWNGPPGVFEFEKFAAGTKALLDEVVKSSAAGNTVIIGGGDTATVAKKYGVTDKISHVSTGGGASLELLEGKELPGVAFLSEKK

The variants in this series derive from B1. As to conditions: Saccharomyces cerevisiae (strain ATCC 204508 / S288c), pH 7.5, 25 °C, GdnHCl, Sodium phosphate 20 mM, structure 3PGK, whole UniProt chain shown.

On to W309F, for which, under “CD”, the “ddG of mutation (higher = less stable)” value was 3.63 kcal/mol, the denaturant m value turned out to be 8.4 kcal/mol/M, the “denaturant midpoint (higher = more stable)” value (“denaturant midpoint” below) was 0.67 M and the unfolding free energy is 5.68 kcal/mol. For the same variant, where the note is “Fluorescence”, the “ddG of mutation (higher = less stable)” value came to 3.71 kcal/mol, the denaturant m value stood at 12.8 kcal/mol/M, the “denaturant midpoint” value turned out to be 0.63 M and the unfolding free energy worked out at 8.04 kcal/mol.
As for W309F W334F, for the setting “CD”, the “ddG of mutation (higher = less stable)” value was determined as 6.33 kcal/mol, the denaturant m value turned out to be 6.1 kcal/mol/M, the “denaturant midpoint” value is 0.48 M and the unfolding free energy was 2.98 kcal/mol. Further, for the setting “Fluorescence”, the “ddG of mutation (higher = less stable)” value is 8.72 kcal/mol, the denaturant m value was found to be 5.9 kcal/mol/M, the “denaturant midpoint” value is 0.49 M and the unfolding free energy stood at 3.03 kcal/mol.
For W334F, for the setting “CD”, the “ddG of mutation (higher = less stable)” value was 3.93 kcal/mol, the denaturant m value was 8.4 kcal/mol/M, the “denaturant midpoint” value is 0.63 M and the unfolding free energy came to 5.38 kcal/mol.
